The source of these data is publication PMC8372784, “AMOTL2 mono-ubiquitination by WWP1 promotes contact inhibition by facilitating LATS activation” (Life Science Alliance, 2021).

This test deals with T1, GST-WWP1 (WW-domain containing protein 1) (UniProt Q9H0M0 1-922).
T1 construct: WWP1, HECT-type E3 ligase, full length; source: baculovirus-infected Sf9 insect cells, purified
The test is described as follows: pull-down; GST or GST-WWP1 (1 μg) immobilised on glutathione-Sepharose 4B, 200 ng AMOTL2-V5; 20 mM Tris-Cl pH 7.9, 150 mM KCl, 0.2 mM EDTA, 20% glycerol, 0.05% NP-40, 0.2 mg/ml BSA; 4°C, 3 h; Western blot. To be noted: both partners purified. On the technique in general: A western blot detects proteins with antibodies after separation by electrophoresis.

B1: AMOTL2-V5 (angiomotin-like 2) (natural protein, UniProt Q9Y2J4 1-779, looked up)
chain: MRTLEDSSGTVLHRLIQEQLRYGNLTETRTLLAIQQQALRGGAGTGGTGSPQASLEILAPEDSQVLQQATRQEPQGQEHQGGENHLAENTLYRLCPQPSKGEELPTYEEAKAHSQYYAAQQAGTRPHAGDRDPRGAPGGSRRQDEALRELRHGHVRSLSERLLQLSLERNGARAPSHMSSSHSFPQLARNQQGPPLRGPPAEGPESRGPPPQYPHVVLAHETTTAVTDPRYRARGSPHFQHAEVRILQAQVPPVFLQQQQQYQYLQQSQEHPPPPHPAALGHGPLSSLSPPAVEGPVSAQASSATSGSAHLAQMEAVLRENARLQRDNERLQRELESSAEKAGRIEKLESEIQRLSEAHESLTRASSKREALEKTMRNKMDSEMRRLQDFNRDLRERLESANRRLASKTQEAQAGSQDMVAKLLAQSYEQQQEQEKLEREMALLRGAIEDQRRRAELLEQALGNAQGRAARAEEELRKKQAYVEKVERLQQALGQLQAACEKREQLELRLRTRLEQELKALRAQQRQAGAPGGSSGSGGSPELSALRLSEQLREKEEQILALEADMTKWEQKYLEERAMRQFAMDAAATAAAQRDTTLIRHSPQPSPSSSFNEGLLTGGHRHQEMESRLKVLHAQILEKDAVIKVLQQRSRRDPGKAIQGSLRPAKSVPSVFAAAAAGTQGWQGLSSSERQTADAPARLTTDRAPTEEPVVTAPPAAHAKHGSRDGSTQTEGPPDSTSTCLPPEPDSLLGCSSSQRAASLDSVATSRVQDLSDMVEILI
notes: AMOTL2 (angiomotin-like 2), full length; The legends print AMOTL-V5; the text prints AMOTL2-V5; also called AMOTL-V5; source: baculovirus-infected Sf9 insect cells, purified
With B1, the binding result was “binds”.
